According to patent publication US20170327579A1 (ENGMAB, published 2017):

Experiments:
[1] = target: T1, human BCMA on myeloma cells (H929, U266, patient bone marrow myeloma plasma cells) (human, UniProt Q02223 1-184); assay: cell-based or functional assay
T1 sequence (looked up): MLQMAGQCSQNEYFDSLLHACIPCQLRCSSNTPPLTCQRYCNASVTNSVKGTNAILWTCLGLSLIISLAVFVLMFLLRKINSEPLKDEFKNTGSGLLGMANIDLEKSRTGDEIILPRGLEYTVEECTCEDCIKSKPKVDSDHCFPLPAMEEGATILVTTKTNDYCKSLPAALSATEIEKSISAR

[2] = target: T1, human BCMA on myeloma cells (H929, …); assay: cell-based or functional assay; remark: listed apart in the source

B1: pSCHLI333-TCB CLC (bispecific antibody)
heavy 1: not shown
heavy 2: QVQLVQSGAEVKKPGASVKVSCKASGYMFSSFGMSWVRQAPGQGLEWMGWIYPVGQGTWYAQKFQGRVTMTRDTSTSTVYMELSSLRSEDTAVYYCARVSYPPSHFDYWGQGTLVTVSSASTKGPSVFPLAPSSKSTSGGTAALGCLVKDYFPEPVTVSWNSGALTSGVHTFPAVLQSSGLYSLSSVVTVPSSSLGTQTYICNVNHKPSNTKVDKKVEPKSCDKTHTCPPCPAPEAAGGPSVFLFPPKPKDTLMISRTPEVTCVVVDVSHEDPEVKFNWYVDGVEVHNAKTKPREEQYNSTYRVVSVLTVLHQDWLNGKEYKCKVSNKALGAPIEKTISKAKGQPREPQVCTLPPSRDELTKNQVSLSCAVKGFYPSDIAVEWESNGQPENNYKTTPPVLDSDGSFFLVSKLTVDKSRWQQGNVFSCSVMHEALHNHYTQKSLSLSPGK
light: QAVVTQEPSLTVSPGGTVTLTCGSSTGAVTTSNYANWVQEKPGQAFRGLIGGTNKRAPGTPARFSGSLLGGKAALTLSGAQPEDEAEYYCALWYSNLWVFGGGTKLTVLGQPKAAPSVTLFPPSSEELQANKATLVCLISDFYPGAVTVAWKADSSPVKAGVETTTPSKQSNNKYAASSYLSLTPEQWKSHRSYSCQVTHEGSTVEKTVAPTECS
[1]
  EC50 (pM) for redirected T-cell killing of H929 cells (LDH release): 980 pM
  EC50 (µg/ml) for redirected T-cell killing of H929 cells (LDH release): 0.19 µg/mL

B2: pSCHLI372-TCB CLC (bispecific antibody)
heavy 1: not shown
heavy 2: EVQLVESGGGLVKPGGSLRLSCAASGFTFSNSGMIWVRQAPGKGLEWVGHIRSKTDGGTTDYAAPVKGRFTISRDDSKNTLYLQMNSLKTEDTAVYYCTTGGSGSFDYWGQGTLVTVSSASTKGPSVFPLAPSSKSTSGGTAALGCLVKDYFPEPVTVSWNSGALTSGVHTFPAVLQSSGLYSLSSVVTVPSSSLGTQTYICNVNHKPSNTKVDKKVEPKSCDKTHTCPPCPAPEAAGGPSVFLFPPKPKDTLMISRTPEVTCVVVDVSHEDPEVKFNWYVDGVEVHNAKTKPREEQYNSTYRVVSVLTVLHQDWLNGKEYKCKVSNKALGAPIEKTISKAKGQPREPQVCTLPPSRDELTKNQVSLSCAVKGFYPSDIAVEWESNGQPENNYKTTPPVLDSDGSFFLVSKLTVDKSRWQQGNVFSCSVMHEALHNHYTQKSLSLSPGK
light: QAVVTQEPSLTVSPGGTVTLTCGSSTGAVTTSNYANWVQEKPGQAFRGLIGGTNKRAPGTPARFSGSLLGGKAALTLSGAQPEDEAEYYCALWYSNLWVFGGGTKLTVLGQPKAAPSVTLFPPSSEELQANKATLVCLISDFYPGAVTVAWKADSSPVKAGVETTTPSKQSNNKYAASSYLSLTPEQWKSHRSYSCQVTHEGSTVEKTVAPTECS
[1]
  EC50 (pM) for redirected T-cell killing of H929 cells (LDH release), Experiment 1: 450 pM
  EC50 (pM) for redirected T-cell killing of H929 cells (LDH release), Experiment 2: 900 pM
  EC50 (µg/ml) for redirected T-cell killing of H929 cells (LDH release), Experiment 1: 0.08 µg/mL
  EC50 (µg/ml) for redirected T-cell killing of H929 cells (LDH release), Experiment 2: 0.17 µg/mL
[2]
  EC50 (pM) for redirected T-cell killing of U266 cells (LDH release): 5700 pM
  EC50 (µg/ml) for redirected T-cell killing of U266 cells (LDH release): 1.1 µg/mL
